We go through three substances from paper PMC9881170.

In data set [1] the target is 55S mitoribosome (crude);mtIF2;mtIF3 (bovine (liver);Homo sapiens;Homo sapiens) (UniProt P46199+Q9H2K0). Briefly: co-sedimentation. The following applies: 200 nM 55S or 28S, 240 nM mtIF2, 240 nM mtIF3, 240 nM fMet-tRNAfMet, 400 nM mRNA, 37 C 30 min (then ice 15 min for mRNA binding), filter wash with 20 mM Mg2+ ….
Data set [2] concerns the target 55S mitoribosome (re-associated);mtIF2;mtIF3 (Homo sapiens (HEK293S TetR GnTI-);Homo sapiens;Homo sapiens) (UniProt P46199+Q9H2K0). The data set is described as follows: sucrose gradient co-sedimentation, Cy3 fluorescence. The following applies: + E. coli fMet-tRNAfMet; 200 nM 55S or 28S, 240 nM mtIF2, 240 nM mtIF3, 240 nM fMet-tRNAfMet, 400 nM mRNA; 37 C 30 min (then ice 15 min for mRNA binding); filter wash with 20 mM Mg2+ ….

Data set [3] addresses 55S mitoribosome, subunits crosslinked;mtIF2 (Homo sapiens (HEK293S TetR GnTI-);Homo sapiens) (UniProt P46199). Described as above. The following applies: + E. coli fMet-tRNAfMet; no mtIF3; 200 nM 55S or 28S, 240 nM mtIF2, 240 nM mtIF3, 240 nM fMet-tRNAfMet, 400 nM mRNA; 37 C 30 min (then ice 15 min for mRNA binding); filter wash with 20 mM Mg2+ ….

Sequence of UniProt P46199 (P46199 whole entry, looked up, tested part not stated): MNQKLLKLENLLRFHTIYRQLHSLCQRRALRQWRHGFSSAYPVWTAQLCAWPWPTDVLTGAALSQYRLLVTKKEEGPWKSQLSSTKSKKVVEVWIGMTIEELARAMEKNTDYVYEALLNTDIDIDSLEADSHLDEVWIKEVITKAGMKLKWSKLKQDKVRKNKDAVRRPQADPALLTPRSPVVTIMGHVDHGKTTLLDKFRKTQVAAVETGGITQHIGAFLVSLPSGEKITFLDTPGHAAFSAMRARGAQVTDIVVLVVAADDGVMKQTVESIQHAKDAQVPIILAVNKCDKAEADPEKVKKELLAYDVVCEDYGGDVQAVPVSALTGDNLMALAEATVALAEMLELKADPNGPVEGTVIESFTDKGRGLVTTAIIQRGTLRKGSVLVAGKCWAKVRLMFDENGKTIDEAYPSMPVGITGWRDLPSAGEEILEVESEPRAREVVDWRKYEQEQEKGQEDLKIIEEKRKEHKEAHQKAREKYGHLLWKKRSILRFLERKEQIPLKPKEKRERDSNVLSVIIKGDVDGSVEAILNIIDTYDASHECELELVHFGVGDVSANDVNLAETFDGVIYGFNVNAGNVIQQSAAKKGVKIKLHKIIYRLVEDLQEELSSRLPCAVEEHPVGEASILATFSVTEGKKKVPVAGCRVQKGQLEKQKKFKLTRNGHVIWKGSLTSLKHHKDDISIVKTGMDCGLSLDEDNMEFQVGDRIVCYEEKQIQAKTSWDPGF

Consider Phe-tRNAPhe, for which, in data set [1] (+ EF-Tu, 30-nt leaderless mRNA S2, fMet-tRNAfMet), the binding signal (% of 55S with [3H]-Phe-tRNAPhe) is 22. For “AUGGCACAUGCAGCGCAAGUAGGUCUACAA [MTCO2 mRNA first 30 nt]”, the values for the binding signal (% of 55S with mRNA bound) in data set [2] and in data set [3] were 50 and 25, respectively. Take fMet-tRNAfMet (35S): in data set [1] (+ 30-nt leaderless mRNA S2, EF-Tu, Phe-tRNAPhe), the binding signal (% of 55S with [35S]-fMet-tRNAfMet) was determined as 27.
